Measured values taken from patent US20080044815A1 (published 2008).

Key:
Experiment in all cases: forward yeast two-hybrid, β-galactosidase overlay assay
[1] = target: T1, JNK1 point mutant Arg-309-Trp, fused to the B42 activation domain (pJG4-5) (human, UniProt Q91Y86 1-384 (mouse entry))
T1 construct: Full-length JNK1 single point mutant; two-hybrid prey; also called R309W; R309→W309

[2] = target: T2, JNK1 point mutant Tyr-320-His, fused to the B42 activation domain (pJG4-5) (human, UniProt Q91Y86 1-384 (mouse entry))
T2 construct: Full-length JNK1 single point mutant; two-hybrid prey; also called Y320H; Y320→H320

[3] = target: T3, JNK1 point mutant Leu-131-Arg, fused to the B42 activation domain (pJG4-5) (human, UniProt Q91Y86 1-384 (mouse entry))
T3 construct: Full-length JNK1 single point mutant; two-hybrid prey; also called L131R; L131→R131

Measured: binding result

B1: TI-JIP (Truncated Inhibitor of JNK based on JIP) fused to the LexA DNA-binding domain, from pGILDA-TI-JIP (peptide)
chain: MKALTARQQEVFDLIRDHISQTGMPPTRAEIAQRLGFRSPNAAEEHLKALARKGVIEIVSGASRGIRLLQEEEEGLPLVGRVAAGEPLLAQQHIEGHYQVDPSLFKPNADFLLRVSGMSMKDIGIMDGDLLAVHKTQDVRNGQVVVARIDDEVTVKRLKKQGNKVELLPENSEFKPIVVDLRQQSFTIEGLAVGVIRNGDWLRPKRPTTLNLF
notes: 11-residue peptide expressed in yeast as a C-terminal fusion with LexA (two-hybrid bait); also called bait
no binding: all assays above
